Reference: patent US20180355009A1
Several values for one entry are separate records, joined by “and”; a condition that tells them apart may be missing. Equal values may be shown once.

Target: human IL-22 receptor complex IL22R1 and IL10R2, overexpressed on HEK 293 cells (human) (UniProt Q8N6P7)
Assay: cell-based or functional assay

Chain of human IL-22 receptor complex IL22R1 and IL10R2, overexpressed on HEK 293 cells (human) (Q8N6P7 16-574, chain 1 of 2): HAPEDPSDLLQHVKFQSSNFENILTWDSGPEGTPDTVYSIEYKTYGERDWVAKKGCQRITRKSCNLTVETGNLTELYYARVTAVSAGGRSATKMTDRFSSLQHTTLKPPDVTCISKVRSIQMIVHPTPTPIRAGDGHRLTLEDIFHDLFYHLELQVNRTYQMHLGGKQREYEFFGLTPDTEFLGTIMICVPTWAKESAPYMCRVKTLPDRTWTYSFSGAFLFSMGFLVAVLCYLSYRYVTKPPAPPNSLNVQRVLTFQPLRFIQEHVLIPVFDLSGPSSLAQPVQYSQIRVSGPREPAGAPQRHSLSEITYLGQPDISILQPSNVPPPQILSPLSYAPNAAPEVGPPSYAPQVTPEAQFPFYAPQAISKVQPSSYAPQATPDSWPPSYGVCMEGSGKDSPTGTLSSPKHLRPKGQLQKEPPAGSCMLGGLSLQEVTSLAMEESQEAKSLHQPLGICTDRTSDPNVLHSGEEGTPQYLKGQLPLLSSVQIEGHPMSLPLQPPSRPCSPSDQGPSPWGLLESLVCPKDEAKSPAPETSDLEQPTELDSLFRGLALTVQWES
Chain of human IL-22 receptor complex IL22R1 and IL10R2, overexpressed on HEK 293 cells (human) (Q08334 20-325, chain 2 of 2, further chain): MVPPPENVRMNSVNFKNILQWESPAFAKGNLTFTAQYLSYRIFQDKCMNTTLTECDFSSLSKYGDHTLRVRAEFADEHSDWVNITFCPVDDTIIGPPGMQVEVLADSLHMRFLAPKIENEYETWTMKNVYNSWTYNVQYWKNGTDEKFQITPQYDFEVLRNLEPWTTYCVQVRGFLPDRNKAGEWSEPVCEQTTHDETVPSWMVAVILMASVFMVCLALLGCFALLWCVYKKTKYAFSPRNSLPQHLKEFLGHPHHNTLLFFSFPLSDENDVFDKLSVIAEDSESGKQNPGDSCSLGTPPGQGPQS

native IL-22 protein produced in CHO cells (from UniProt Q9GZX6 34-179) (ligand)
potency in the STAT3 luciferase reporter assay, against the IL-22 Fc fusion proteins: 2 fold and 3 fold
